{"source": "patent US20230071765A1", "about": "“COMPOSITIONS HAVING THIOREDOXIN ACTIVITY AND RELATED METHODS” (ORPRO THERAPEUTICS, INC., priority 2020, published 2023)", "format_in_all_cases": "physicochemical", "key": {"[1]": {"assay": "DTNB assay of reduction state (free SH groups)", "details": "for % reduced (68 hrs): 25° C., red fraction removed", "procedure": "(§1) Functional assays 1. Reduction state of ORP100S was quantified using DTNB which reacts with free SH groups resulting in a yellow color change at 412 nm. Fifty microliters of 2.5 mM rhTrx was added to a 96-well plate, followed by 175 microliters of sample buffer and 25 microliters of 6 mM DTNB. After reactions were initiated by the addition of DTNB, change in kinetic absorbance at 412 nm due to DTNB reduction was monitored spectrophotometrically at 30° C. ORP100S concentration was determined by A280 (Nanodrop) using the extinction coefficient of human Trx-1 (7,000). The actual concentrations of free sulfhydryl groups were calculated based on the absorbance at 412 nm and the extinction coefficient of DTNB (14,150) in order to determine the reduction state as percentage of free sulfhydryl. […] 2. Percent of free monomer ORP100S in solution was determined using SEC. Samples were analyzed on a BioBasic S-300 250×4.6 column (Thermo Scientific) run on an Agilent 1100 HPLC system. The SEC-HPLC mobile phase buffer consisted of 40 mM ammonium acetate (pH 5.5), 2 mM EDTA and 450 mM NaCl. Low pH minimized dimerization while the 450 mM NaCl concentration improved resolution. The flow rate was 0.35 mL/min and absorbance was monitored at 280 nm. The length of each run was 20 minutes. The ORP100S monomer percentage was determined by integration of the area under the peak of the monomeric fraction divided by the total area under the curve of the chromatogram. 3. Disulfide bond reduction activity of ORP100S was quantified by assaying the reduction state of a small protein (human insulin) which in its heterodimeric form contains two intermolecular and one intramolecular disulfide, all three of which are known to be suitable thioredoxin substrates. Insulin reduction has classically been used to quantify thioredoxin activity by absorbance change following addition of NADPH and TrxR (Holmgren A., 1979, Thioredoxin catalyzes the reduction of insulin disulfides by dithiothreitol and dihydrolipoamide, J Biol Chem 254:9627-32). Such an approach is not suitable for monothiol C35S thioredoxins ORP-100 and ORP100S due to 1) the lack of cycling resulting from stoichiometric covalent linkage to the disulfide bond substrate and 2) the inability of NADPH and TrxR to reduce Cys32 of the oxidized monothiol Trx active site. Consequently, a new assay was developed based on the use of reverse-phase (RP) HPLC to monitor the rate of conversion of disulfide-bonded insulin heterodimers to monomeric forms. The two chains of human insulin have a total of six Cys residues which form three disulfide bonds in its mature structure. When ORP100S in the reduced form is incubated with dimeric insulin it reacts with these disulfide bonds to disrupt them, simultaneously forming covalent linkages to the ORP100S Cys32. […] The ORP100S samples were incubated with 10 mg/mL insulin for various time points (0-90 min) and the reactions were stopped by addition of iodacetic acid (IA) and trifluoroacetic acid (TFA). Relative activity at each time point was determined from changes in the area under the insulin heterodimer peak following separation over RP-HPLC (Agilent 1100) using an Intrada WP-RP 50×3 (Imtakt) column. Buffer A was 0.1% TFA and Buffer B was 0.1% TFA in acetonitrile. The gradient was […] in 5 min followed by 30 to 60% B in 45 min, then 60 to 80% B for an additional 5 min. The flow rate was 0.2 mL/min and absorbance was measured at 280 nm. In order to evaluate the change in the intact insulin molecule a time 0 baseline was first established using 1 M IA and 0.1% TFA without the addition of ORP100S. The area under the intact insulin heterodimer peak was then determined and set as equivalent to 100%. After the reaction with ORP100S the area of the intact insulin peak (corresponding to retention time) was measured. The percent reduction in intact insulin was then calculated from the decrease in the area following reduction divided by the area at time 0 multiplied by 100."}, "[2]": {"assay": "SEC-HPLC percent free monomer in solution", "procedure": "as §1"}, "[3]": {"assay": "thiol pKa (acid-dissociation constant)", "details": "verified experimentally, data not shown", "excerpt": "The human CF airway surface liquid is approximately 0.8 pH units more acidic than that of unaffected individuals due to the loss of bicarbonate-mediated buffering of proton secretion (Garland A L, Walton W G, Coakley R D, et al., 2013, Molecular basis for pH-dependent mucosal dehydration in cystic fibrosis airways. PNAS 110:15973-8; Shah V S, Meyerholz D K, Tang X X, et al., 2016, Airway acidification initiates host defense abnormalities in cystic fibrosis mice, Science 351:503-7). This has consequences for the clinical use of reducing agents to treat condensed, abnormal mucus. […] Cys thiol pKa values range from pH 8.5 (cysteamine) to pH 9.5 (NAC). In marked contrast to these classical thiols, the structurally-stabilized pKa of the Trx active site Cys32 is two to three logs lower (pH 6.1-6.3), allowing high activity even at acidic CF airway pH (FIG. 2)."}, "[4]": {"details": "70 mg/mL in PBS, 25° C., red fraction removed"}, "[5]": {"details": "80 mg/mL in PBS, 25° C., red fraction removed"}, "[6]": {"details": "90 mg/mL in PBS, 25° C., red fraction removed"}, "[7]": {"details": "100 mg/mL in PBS, 25° C., red fraction removed"}, "[8]": {"details": "110 mg/mL in PBS, 25° C., red fraction removed"}}, "data": [{"molecule": "ORP100S: thioredoxin with monothiol active site, Cys35 and non-active Cys 62, 69 and 73 substituted with serine (SEQ ID NO:29) (protein, synthetic peptide motif) MVKQIESKTAFQEALDAAGDKLVVVDFSATWCGPSKMIKPFFHSLSEKYSNVIFLEVDVDDSQDVASESEVKSMPTFQFFKKGQKVGEFSGANKEKLEATINELV", "values": [{"measurement": "% reduced (68 hrs)", "setting": "[1]; 70 mg/mL in PBS", "result": 109, "unit": "%"}, {"measurement": "% reduced (68 hrs)", "setting": "[1]; 80 mg/mL in PBS", "result": 87, "unit": "%"}, {"measurement": "% reduced (68 hrs)", "setting": "[1]; 90 mg/mL in PBS", "result": 91, "unit": "%"}, {"measurement": "% reduced (68 hrs)", "setting": "[1]; 100 mg/mL in PBS", "result": 91, "unit": "%"}, {"measurement": "% reduced (68 hrs)", "setting": "[1]; 110 mg/mL in PBS", "result": 102, "unit": "%"}, {"measurement": "DTNB % reduced", "setting": "[1]; Ox:Red 0:100 mixture", "result": 86, "unit": "%"}, {"measurement": "DTNB % reduced", "setting": "[1]; Ox:Red 25:75 mixture", "result": 73, "unit": "%"}, {"measurement": "DTNB % reduced", "setting": "[1]; Ox:Red 50:50 mixture", "result": 55, "unit": "%"}, {"measurement": "DTNB % reduced", "setting": "[1]; Ox:Red 75:25 mixture", "result": 49, "unit": "%"}, {"measurement": "DTNB % reduced", "setting": "[1]; Ox:Red 100:0 mixture", "result": 22, "unit": "%"}, {"measurement": "% monomer (232 hrs)", "setting": "[2]; [4]", "result": 93, "unit": "%"}, {"measurement": "% monomer (Time 0)", "setting": "[2]; [4]", "result": 93, "unit": "%"}, {"measurement": "% monomer (232 hrs)", "setting": "[2]; [5]", "result": 93, "unit": "%"}, {"measurement": "% monomer (Time 0)", "setting": "[2]; [5]", "result": 94, "unit": "%"}, {"measurement": "% monomer (232 hrs)", "setting": "[2]; [6]", "result": 92, "unit": "%"}, {"measurement": "% monomer (Time 0)", "setting": "[2]; [6]", "result": 94, "unit": "%"}, {"measurement": "% monomer (232 hrs)", "setting": "[2]; [7]", "result": 93, "unit": "%"}, {"measurement": "% monomer (Time 0)", "setting": "[2]; [7]", "result": 95, "unit": "%"}, {"measurement": "% monomer (232 hrs)", "setting": "[2]; [8]", "result": 92, "unit": "%"}, {"measurement": "% monomer (Time 0)", "setting": "[2]; [8]", "result": 95, "unit": "%"}, {"measurement": "SEC % monomer", "setting": "[2]; Ox:Red 0:100 mixture", "result": 89, "unit": "%"}, {"measurement": "SEC % monomer", "setting": "[2]; Ox:Red 25:75 mixture", "result": 70, "unit": "%"}, {"measurement": "SEC % monomer", "setting": "[2]; Ox:Red 50:50 mixture", "result": 52, "unit": "%"}, {"measurement": "SEC % monomer", "setting": "[2]; Ox:Red 75:25 mixture", "result": 36, "unit": "%"}, {"measurement": "SEC % monomer", "setting": "[2]; Ox:Red 100:0 mixture", "result": 22, "unit": "%"}, {"measurement": "decrease in percent monomer", "setting": "[2]; time 0 to 232 hours, 25° C., PBS, 70-110 mg/ml, red fraction removed", "result": 2, "unit": "%"}, {"measurement": "pKa compared to native Trx", "setting": "[3]", "result": "same pKa as native Trx"}]}]}
